Laboratory results as given in PMC8147279.

Legend:
[1] = molecular target: β-sliding processivity clamp (Escherichia coli) (UniProt P0A988)
[2] = molecular target: β-sliding processivity clamp (Escherichia coli) (UniProt P0A988); remark: listed apart in the source
[3] = molecular target: β-sliding processivity clamp (Escherichia coli) (UniProt P0A988); remark: listed apart in the source
[4] = molecular target: β-sliding processivity clamp (Escherichia coli) (UniProt P0A988); remark: listed apart in the source
[5] = molecular target: β-sliding processivity clamp (Escherichia coli) (UniProt P0A988); remark: listed apart in the source
[6] = molecular target: β-sliding processivity clamp (Escherichia coli) (UniProt P0A988); remark: listed apart in the source

pol V Mut WT (UmuD’2C-RecA-ATP/ATPγS), sequence (P04152 whole entry): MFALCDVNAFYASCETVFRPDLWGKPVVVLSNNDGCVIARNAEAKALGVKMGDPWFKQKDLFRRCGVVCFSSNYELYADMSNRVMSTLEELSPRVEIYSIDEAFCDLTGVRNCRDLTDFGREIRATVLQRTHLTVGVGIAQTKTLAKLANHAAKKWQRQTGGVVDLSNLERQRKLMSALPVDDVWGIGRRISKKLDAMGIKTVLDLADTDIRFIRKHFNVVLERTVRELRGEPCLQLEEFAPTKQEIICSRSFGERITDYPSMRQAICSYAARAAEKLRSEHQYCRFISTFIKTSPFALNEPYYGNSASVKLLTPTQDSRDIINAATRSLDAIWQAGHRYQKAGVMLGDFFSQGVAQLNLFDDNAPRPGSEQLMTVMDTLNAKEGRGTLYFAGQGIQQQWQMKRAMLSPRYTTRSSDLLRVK
pol V Mut WT (UmuD’2C-RecA-ATP/ATPγS), sequence (P0AG11 25-139): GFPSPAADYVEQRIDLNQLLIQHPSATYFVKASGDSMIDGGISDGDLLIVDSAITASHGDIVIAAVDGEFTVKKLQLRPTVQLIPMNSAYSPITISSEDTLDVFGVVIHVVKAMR
pol V Mut WT (UmuD’2C-RecA-ATP/ATPγS), sequence (P0A7G6 whole entry): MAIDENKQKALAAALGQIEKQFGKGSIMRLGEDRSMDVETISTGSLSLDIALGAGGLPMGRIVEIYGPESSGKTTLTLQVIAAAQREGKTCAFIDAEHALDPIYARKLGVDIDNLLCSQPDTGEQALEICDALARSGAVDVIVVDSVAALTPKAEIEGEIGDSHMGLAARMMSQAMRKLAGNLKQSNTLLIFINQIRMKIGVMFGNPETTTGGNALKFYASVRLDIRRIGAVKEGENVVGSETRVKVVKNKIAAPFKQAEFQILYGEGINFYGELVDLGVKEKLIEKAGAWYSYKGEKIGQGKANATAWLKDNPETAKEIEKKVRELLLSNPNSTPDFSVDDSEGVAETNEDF
β-sliding processivity clamp (Escherichia coli), sequence (P0A988 whole entry): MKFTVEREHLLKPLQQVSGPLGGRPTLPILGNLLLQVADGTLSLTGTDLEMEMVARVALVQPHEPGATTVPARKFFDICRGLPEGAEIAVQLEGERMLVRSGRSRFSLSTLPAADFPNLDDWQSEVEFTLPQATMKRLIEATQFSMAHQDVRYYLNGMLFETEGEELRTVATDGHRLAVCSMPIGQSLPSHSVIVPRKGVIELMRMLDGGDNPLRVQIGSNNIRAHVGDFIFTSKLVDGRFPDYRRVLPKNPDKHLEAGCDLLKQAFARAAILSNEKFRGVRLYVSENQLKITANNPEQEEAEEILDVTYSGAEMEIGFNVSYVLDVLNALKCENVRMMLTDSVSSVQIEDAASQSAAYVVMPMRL

pol V Mut E38K/∆C17 (UmuD’2C-RecA E38K/∆C17-ATP/ATPγS) (from UniProt P04152 1-422; P0AG11 25-139; P0A7G6 1-353) (complex)
percent of primer extended (% PE) on undamaged circular p/t DNA by pol V Mut E38K/ΔC17-ATP with β-clamp and γ-complex, 15-120 min (10% at 120 min without β) [1]: 77%
percent of primer extended (% PE) on undamaged circular p/t DNA by pol V Mut E38K/ΔC17-ATPγS with β-clamp and γ-complex (γ-complex stays on β with ATPγS) [2]: 42%
fold increase of DNA elongation rate by β on undamaged DNA, pol V Mut E38K/ΔC17-ATP [3]: 7 fold

pol V Mut WT (UmuD’2C-RecA-ATP/ATPγS) (from UniProt P04152 1-422; P0AG11 25-139; P0A7G6 1-353) (complex)
percent of primer extended (% PE) on undamaged circular p/t DNA by pol V Mut WT-ATPγS with β-clamp and γ-complex, 15-120 min (~5% at 60 min without β) [4]: > 40%
percent of primer extended (% PE) on undamaged circular p/t DNA by pol V Mut WT-ATP with β-clamp and γ-complex, 15-120 min (about 1% without β) [5]: 5%
translesion synthesis past an abasic site 3 nt from the primer end, % PE, pol V Mut WT with dATP, ATPγS and β/γ, up to 120 min [6]: 35%
fold increase of DNA elongation rate by β on undamaged DNA, pol V Mut WT-ATP [3]: 5 fold
